The values that follow come from patent publication US20230295324A1.

Assay [1] deals with human OX40 on cells (CHO-K1/hu OX40) (human) (UniProt P43489). Kind of assay: cell-based or functional assay.
Assay [2] shares this target. Description: FACS, CHO-K1/hu OX40 cells. (In general: A flow cytometer gives signals particle by particle.)

Chain of human OX40 on cells (CHO-K1/hu OX40) (human) (P43489 29-277): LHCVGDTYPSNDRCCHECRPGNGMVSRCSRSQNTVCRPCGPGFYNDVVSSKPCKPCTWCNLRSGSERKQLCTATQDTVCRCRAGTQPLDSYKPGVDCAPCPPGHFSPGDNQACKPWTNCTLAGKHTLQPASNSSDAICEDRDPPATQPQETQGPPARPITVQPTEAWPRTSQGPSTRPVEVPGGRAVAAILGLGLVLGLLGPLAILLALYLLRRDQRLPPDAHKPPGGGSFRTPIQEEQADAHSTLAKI

One may read the EC50 as the concentration at which the effect is half-maximal. A lower EC50 goes with a more potent agent. For the substance hIgG1 (antibody), in assay [1], the Maximum fluorescence signal value, HEK293/OX40/NF-kb luciferase reporter stood at 2530 luminescence. In assay [2], the EC50 is 71 nM and the Maximum MFI was found to be 6900 MFI.
